First the molecules themselves.
B1: PDK1 (protein)
chain: not shown
modifications: lipoylated, DANS-As-labeled L2S
B2: PDK4 (protein)
chain: not shown
modifications: dapoxyl-labeled L3S'
B3: PDK3 (protein)
chain: not shown
modifications: lipoylated, DANS-As-labeled L3S'
B4: PDK1 (protein)
chain: not shown
modifications: L2 lipoylation Lys to Ala, lipoylated, DANS-As-labeled
B5: PDK4 (protein)
chain: not shown
modifications: lipoylated, DANS-As-labeled L1
B6: PDK1 (protein)
chain: not shown
modifications: lipoylated, DANS-As-labeled L1
B7: PDK4 (protein)
chain: not shown
modifications: lipoylated, DANS-As-labeled L3S'
B8: PDK3 (protein)
chain: not shown
modifications: L1 lipoylation Lys to Ala, lipoylated, DANS-As-labeled
B9: E2 L1L2S-ML1 L1L2S tridomain (protein)
chain: HQKVPLPSLSPTMQAGTIARWEKKEGDKINEGDLIAEVETDKATVGFESLEECYMAKILVAEGTRDVPIGAIICITVGKPEDIEAFKNYTLDSSAAPTPQAAPAPTPAATASPPTPSAQAPGSSYPPHMQVLLPALSPTMTMGTVQRWEKKVGEKLSEGDLLAEIETDKATIGFEVQEEGYLAKILVPEGTRDVPLGTPLCIIVEKEADISAFADYRPTEVTDLKPQVPPPTPPPVAAVPPTPQPLAPTPSAPCPATPAGPKGRVFVSPLAKKLAVEKGIDLTQVKGTGPDGRITKKDIDSFV
B10: E2 L1L2S-ML2 L1L2S tridomain (protein)
chain: B9 chain
B11: E2 L1 L1 lipoyl domain (protein)
chain: HQKVPLPSLSPTMQAGTIARWEKKEGDKINEGDLIAEVETDKATVGFESLEECYMAKILVAEGTRDVPIGAIICITV
B12: PDK4 (protein)
chain: not shown
modifications: L1 lipoylation Lys to Ala, lipoylated, DANS-As-labeled
B13: PDK4 (protein)
chain: not shown
modifications: L2 lipoylation Lys to Ala, lipoylated, DANS-As-labeled
B14: E3BP L3S' L3S' didomain (protein)
chain: PIKILMPSLSPTMEEGNIVKWLKKEGEAVSAGDALCEIETDKAVVTLDASDDGILAKIVVEEGSKNIRLGSLIGLIVEEGEDWKHVEIPKDVGPPPPVSKPSEPRPSPEPQISIPVKKEHIPGTLRFRLSPAARNILEKHSLDASQGTATGPRGIFTKEDALKLV
B15: PDK3 (protein)
chain: not shown
modifications: lipoylated, DANS-As-labeled L2S
B16: PDK3 (protein)
chain: not shown
modifications: L2 lipoylation Lys to Ala, lipoylated, DANS-As-labeled
B17: PDK1 (protein)
chain: not shown
modifications: L1 lipoylation Lys to Ala, lipoylated, DANS-As-labeled
B18: E2 L2S L2S didomain (protein)
chain: HMQVLLPALSPTMTMGTVQRWEKKVGEKLSEGDLLAEIETDKATIGFEVQEEGYLAKILVPEGTRDVPLGTPLCIIVEKEADISAFADYRPTEVTDLKPQVPPPTPPPVAAVPPTPQPLAPTPSAPCPATPAGPKGRVFVSPLAKKLAVEKGIDLTQVKGTGPDGRITKKDIDSFV
B19: PDK4 (protein)
chain: not shown
modifications: lipoylated, DANS-As-labeled L2S
B20: PDK3 (protein)
chain: not shown
modifications: lipoylated, DANS-As-labeled L1

The target in the test “E2 L2S L2S didomain” is B18. The test can be described thus: fluorescence titration.
Test [1] addresses B14. The test can be described thus: fluorescence titration.
In test [2] the target is B14. Briefly: fluorescence titration (quenching).
In test [3] the target is B10. The test can be described thus: fluorescence titration.
For the test “E2 L1 L1 lipoyl domain”, the target named is B11. Briefly: fluorescence titration.
For test [4], the target named is B9. The test can be described thus: fluorescence titration.
Test [5] deals with T1, PDK2 (Homo sapiens, UniProt Q15119). Briefly: fluorescence titration.
For test [6], the target named is T1, PDK2. The test can be described thus: fluorescence titration (quenching).

A word on the Kd: it is the equilibrium constant for the complex coming apart. A lower Kd goes with tighter binding.

B1 registered a Kd with E2 L2S L2S didomain of 17100 nM.

In the test with E3BP L3S' L3S' didomain [1], B2 gave a Kd of 5.02 µM.

In turn, B3 registered a Kd in the test with E3BP L3S' L3S' didomain [2] of 103 nM.

In test [3], B4 yielded an equilibrium dissociation constant (Kd) of 3620 nM.

Take B5: the equilibrium dissociation constant (Kd) in the test with E2 L1 L1 lipoyl domain was 350 nM.

Consider B6, for which binding with E2 L1 L1 lipoyl domain was put at a Kd of 4430 nM.

Molecule B7 showed a Kd with E3BP L3S' L3S' didomain [1] of 5.93 µM.

B8 showed a Kd in test [4] of 540 nM.

In the case of B9, in the test with PDK2 [5], binding was put at a Kd of 890 nM.

B10 registered a Kd in the test with PDK2 [5] of 640 nM.

B11 came in with a Kd with PDK2 [5] of 910 nM.

In turn, B12 gave a Kd in test [4] of 270 nM.

Take B13: in test [3], binding was put at a Kd of 397 nM.

B14: the Kd was determined as 2070 nM in the test with PDK2 [5] and 25 nM with PDK2 [6].

In the test with E2 L2S L2S didomain, B15 yielded a dissociation constant Kd of 1210 nM.

On to B16, for which, in test [3], the Kd turned out to be 396 nM.

Turning to B17, the Kd in test [4] was 2100 nM.

In the test with PDK2 [5], B18 gave a Kd of 1380 nM.

Consider B19, for which, in the test with E2 L2S L2S didomain, the Kd worked out at 2070 nM.

The molecule B20 returned a dissociation constant (Kd) with E2 L1 L1 lipoyl domain of 620 nM.
